Drawing on patent US20080138339A1, this text covers binding activity relative to negative control for one molecule.

The test concerns the target OC183B2 (antigens associated with ovarian carcinoma) (human). Put plainly: indirect ELISA of phage-displayed scFv. For orientation: An ELISA detects its analyte on a solid surface through an enzyme-linked reagent.

B1: anti-ovarian carcinoma scFv antibody (scFv)
scFv: EVQLQESGPEVKKPGETVRISCKASGYTFTTAGMQWVQKMPGKGLKWLGWINTNSEVPKYAEDFRGRFAFSLETSASTAYLQISNLKNEDTATFFCARSFTWGTMDYWGQGTTVTVSSGGGGSGGGGSGGGGSDVVMTQTPLSLPVSLGDQASISCRSSQTLVHSIGNTYLHWYLQKPGQSPKLLIYKVSNRFSGVPDRFSGSGSGTDFTLKISRVEAEDLGVYFCSQSTHVPYTFGGGTKLELK
For the molecule B1, the binding activity relative to negative control was 2.5 times.
